US5591825A, “Interleukin 4 signal transducers” (Tularik, Inc., priority 1994, dated 1997)
Non-standard residues stand in square brackets, D forms with d. pY = N[C@@H](Cc1ccc(OP(=O)(O)O)cc1)C(=O)O

Target: T1, IL-4 Stat (Homo sapiens, UniProt P42226)
T1 construct: Samples of nuclear extract prepared from IL-4 induced Thp-1 cells were incubated with individual phosphopeptides; endogenous in cells; host or cells: Thp-1 cells, IL-4 induced, nuclear extract
T1 sequence (P42226 1-847): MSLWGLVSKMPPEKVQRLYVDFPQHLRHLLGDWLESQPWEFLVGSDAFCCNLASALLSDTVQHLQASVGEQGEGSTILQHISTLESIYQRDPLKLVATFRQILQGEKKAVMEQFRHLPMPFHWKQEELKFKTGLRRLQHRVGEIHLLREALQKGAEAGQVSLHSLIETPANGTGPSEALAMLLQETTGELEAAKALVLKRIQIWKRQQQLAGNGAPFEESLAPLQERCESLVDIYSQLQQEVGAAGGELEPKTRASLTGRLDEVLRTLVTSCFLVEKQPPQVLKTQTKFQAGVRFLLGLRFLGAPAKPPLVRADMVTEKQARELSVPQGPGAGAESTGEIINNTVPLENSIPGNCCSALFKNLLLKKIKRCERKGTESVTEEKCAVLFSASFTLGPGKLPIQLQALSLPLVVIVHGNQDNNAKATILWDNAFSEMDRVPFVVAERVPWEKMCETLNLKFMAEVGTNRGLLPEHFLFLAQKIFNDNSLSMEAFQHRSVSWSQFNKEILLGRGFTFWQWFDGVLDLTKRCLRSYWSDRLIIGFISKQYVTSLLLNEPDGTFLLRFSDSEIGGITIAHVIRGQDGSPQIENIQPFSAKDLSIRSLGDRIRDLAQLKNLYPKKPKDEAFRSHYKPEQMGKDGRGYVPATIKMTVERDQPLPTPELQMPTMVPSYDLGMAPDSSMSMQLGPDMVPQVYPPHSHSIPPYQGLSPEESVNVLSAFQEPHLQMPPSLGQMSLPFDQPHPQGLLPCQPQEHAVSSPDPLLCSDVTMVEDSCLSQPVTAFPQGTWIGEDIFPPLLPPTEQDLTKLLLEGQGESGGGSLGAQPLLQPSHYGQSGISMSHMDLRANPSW
Experiment: Gel mobility shift assay of IL-4 Stat DNA binding in nuclear extract of IL-4 induced Thp-1 cells
Format: biochemical
Conditions: nuclear extract from IL-4 induced Thp-1 cells

Substance: NH2-ASS GEE GYKP FQD LI(SEQ ID NO:11)-COOH (H-ASSGEEG[pY]KPFQDLI-OH; SMILES CC[C@H](C)[C@H](NC(=O)[C@H](CC(C)C)NC(=O)[C@H](CC(=O)O)NC(=O)[C@H](CCC(N)=O)NC(=O)[C@H](Cc1ccccc1)NC(=O)[C@@H]1CCCN1C(=O)[C@H](CCCCN)NC(=O)[C@H](Cc1ccc(OP(=O)(O)O)cc1)NC(=O)CNC(=O)[C@H](CCC(=O)O)NC(=O)[C@H](CCC(=O)O)NC(=O)CNC(=O)[C@H](CO)NC(=O)[C@H](CO)NC(=O)[C@H](C)N)C(=O)O)
- inhibitory effect on DNA binding by activated IL-4 Stat: inhibitory

Substance: NH2-GPP GEA GYKA FSS LL(SEQ ID NO:10)-COOH (H-GPPGEAG[pY]KAFSSLL-OH; SMILES CC(C)C[C@H](NC(=O)[C@H](CC(C)C)NC(=O)[C@H](CO)NC(=O)[C@H](CO)NC(=O)[C@H](Cc1ccccc1)NC(=O)[C@H](C)NC(=O)[C@H](CCCCN)NC(=O)[C@H](Cc1ccc(OP(=O)(O)O)cc1)NC(=O)CNC(=O)[C@H](C)NC(=O)[C@H](CCC(=O)O)NC(=O)CNC(=O)[C@@H]1CCCN1C(=O)[C@@H]1CCCN1C(=O)CN)C(=O)O)
- inhibitory effect on DNA binding by activated IL-4 Stat: inhibitory
